Here are results for five molecules from patent US20250281611A1 (BIOSCEPTRE AUST, published 2025).

Test [1] addresses T1, CD33 (UniProt P20138 18-364, limits assumed).
T1 construct: whole, on cells; also called Siglec-3; CD33 on MOLM-13 cells
The test can be described thus: flow cytometry, MOLM-13 cells, anti-His-FITC detection. As to the method:
(§1) MOLM-13 cells were incubated with different CD33 BRIDGE variants at saturating concentrations. […] The MFI intensity correlates with the number of secondary antibodies bound to the CD33 BRIDGE variants that are only detected if they are bound to the MOLM-13 cells. MFI: median fluorescence intensity. BLItz: Bio-Layer interferometry (BLI) technology using HIS-tag identification tips. […] The higher the MFIR, the stronger the binding.

Test [2] addresses T2, nfP2X7 CAR 1.
T2 construct: Expressed on T cells with truncated EGFR as marker gene; also called anti-nfP2X7 receptor CAR 1; nfP2X7 targeted CAR on EGFR+ T cells
The test can be described thus: flow cytometry, CAR T cells, anti-His-FITC, EGFR+ over EGFR- cells. As to the method: (§2) nfP2X₇ CAR T cells were incubated with different BRiDGE variants at saturating concentrations. […] The MFI intensity correlates with the number of secondary bound antibodies bound to the BRiDGEs that are only detected if they are bound to the CAR T cells. EGFR was used as a marker gene to detect the CAR expression. Thus, the EGFR+ T cell population was defined as the CAR expressing cells and the EGFR− T cell population was defined as the CAR negative subset. MFI: median fluorescence intensity. EGFR: epidermal growth factor receptor. BLItz: Bio-Layer interferometry (BLI) technology using HIS-tag identification tips. HIS-tag MFI Ratio: relative index that is calculated by the testing condition MFI divided by the control MFI, which corresponds to the MFI measured on EGFR+ T cells (defined as CAR positive cells) divided by the MFI measured on the EGFR− T cells (defined as CAR negative cells). […] The higher the MFIR, the stronger the binding.

Test [3] has as its target T2, nfP2X7 CAR 1. Put plainly: flow cytometry, nfP2X7 CAR T cells (EGFR+), anti-His-FITC detection. As to the method: as §2
In test [4] the target is T2, nfP2X7 CAR 1. The test can be described thus: flow cytometry, CAR T cells, anti-His-FITC, EGFR+ MFI over background 0.4. As to the method: as §2
A general note: A flow cytometer gives signals particle by particle.

Test [5] concerns the target T1, CD33. The test can be described thus: flow cytometry, MOLM-13 cells, anti-His-FITC detection, ratio to no bridge. As to the method:
as §1

T1 sequence (P20138 18-364 limits assumed): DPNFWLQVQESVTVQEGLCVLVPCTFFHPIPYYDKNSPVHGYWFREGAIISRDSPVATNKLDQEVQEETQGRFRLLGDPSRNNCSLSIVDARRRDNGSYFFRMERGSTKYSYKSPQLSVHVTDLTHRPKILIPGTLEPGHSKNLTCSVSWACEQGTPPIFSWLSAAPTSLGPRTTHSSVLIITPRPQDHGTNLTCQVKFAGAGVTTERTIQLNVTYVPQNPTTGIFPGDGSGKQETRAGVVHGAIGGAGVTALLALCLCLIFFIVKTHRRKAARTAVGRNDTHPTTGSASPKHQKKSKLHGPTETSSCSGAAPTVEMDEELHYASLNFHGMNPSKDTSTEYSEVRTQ

B1: CD33 BRIDGE variant B18 (Fab)
light: GHNYTTRNILPGLNITSTFHKTSGSGKGGGGSEPKSSDKTHTGGGGSDIQMTQSPSSLSASVGDRVTITCRASESVDNYGISFMNWFQQKPGKAPKLLIYAASNQGSGVPSRFSGSGSGTDFTLTISSLQPDDFATYYCQQSKEVPWTFGQGTKVEIKRTVAAPSVFIFPPSDEQLKSGTASVVCLLNNFYPREAKVQWKVDNALQSGNSQESVTEQDSKDSTYSLSSTLTLSKADYEKHKVYACEVTHQGLSSPVTKSFNRGECHHHHHH
heavy: QVQLVQSGAEVKKPGSSVKVSCKASGYTFTDYNMHWVRQAPGQGLEWIGYIYPYNGGTGYNQKFKSKATITADESTNTAYMELSSLRSEDTAVYYCARGRPAMDYWGQGTLVTVSSASTKGPSVFPLAPSSKSTSGGTAALGCLVKDYFPEPVTVSWNSGALTSGVHTFPAVLQSSGLYSLSSVVTVPSSSLGTQTYICNVNHKPSNTKVDKKVEPKSCHHHHHH
notes: Lintuzumab-based Fab bridging molecule
Regarding B1, the “MFI HisTag FITC” value with CD33 [1] came to 5.79. Besides, in the test with nfP2X7 CAR 1 [2], the “HisTag MFI Ratio of EGFR+/EGFR-” value turned out to be 3.4. Also, in the test with nfP2X7 CAR 1 [3], the “MFI HisTag FITC in EGFR+ Population” value amounted to 1.79. In addition, the “HisTag MFI Ratio (background 0.4)” value in the test with nfP2X7 CAR 1 [4] was found to be 4.5. Also, in the test with CD33 [5], the “MFIR HisTag FITC” value was found to be 8.64.

B2: CD33 BRIDGE variant B21 (Fab)
light: DFPGHNYTTRNILPGLNITSGGGGSEPKSSDKTHTDIQMTQSPSSLSASVGDRVTITCRASESVDNYGISFMNWFQQKPGKAPKLLIYAASNQGSGVPSRFSGSGSGTDFTLTISSLQPDDFATYYCQQSKEVPWTFGQGTKVEIKRTVAAPSVFIFPPSDEQLKSGTASVVCLLNNFYPREAKVQWKVDNALQSGNSQESVTEQDSKDSTYSLSSTLTLSKADYEKHKVYACEVTHQGLSSPVTKSFNRGECHHHHHH
heavy: B1 heavy
notes: as for B1
B2: the “MFI HisTag FITC” value with CD33 [1] stood at 6.04. Further, the “HisTag MFI Ratio of EGFR+/EGFR-” value with nfP2X7 CAR 1 [2] stood at 2.8. Also, the “MFI HisTag FITC in EGFR+ Population” value with nfP2X7 CAR 1 [3] turned out to be 1.14. Further, in the test with nfP2X7 CAR 1 [4], the “HisTag MFI Ratio (background 0.4)” value came to 2.9. In the test with CD33 [5], the “MFIR HisTag FITC” value was 9.01.

B3: CD33 BRIDGE variant B19 (Fab, V domains shown)
VH: QVQLVQSGAEVKKPGSSVKVSCKASGYTFTDYNMHWVRQAPGQGLEWIGYIYPYNGGTGYNQKFKSKATITADESTNTAYMELSSLRSEDTAVYYCARGRPAMDYWGQGTLVTVSS
VL: DIQMTQSPSSLSASVGDRVTITCRASESVDNYGISFMNWFQQKPGKAPKLLIYAASNQGSGVPSRFSGSGSGTDFTLTISSLQPDDFATYYCQQSKEVPWTFGQGTKVEIKR
notes: as for B1
In the case of B3, the “MFI HisTag FITC” value with CD33 [1] came to 5.35. The “HisTag MFI Ratio of EGFR+/EGFR-” value with nfP2X7 CAR 1 [2] worked out at 2.9. For the same molecule, the “MFI HisTag FITC in EGFR+ Population” value with nfP2X7 CAR 1 [3] came to 1.29. Further, the “HisTag MFI Ratio (background 0.4)” value with nfP2X7 CAR 1 [4] worked out at 3.2. Further, the “MFIR HisTag FITC” value with CD33 [5] is 7.99.

B4: CD33 BRIDGE variant B20 (Fab, V domains shown)
VH: B3 VH
VL: B3 VL
notes: as for B1
Take B4: the “MFI HisTag FITC” value with CD33 [1] amounted to 5.67. Moreover, the “HisTag MFI Ratio of EGFR+/EGFR-” value with nfP2X7 CAR 1 [2] was found to be 2.9. Besides, the “MFI HisTag FITC in EGFR+ Population” value with nfP2X7 CAR 1 [3] is 1.29. Also, in the test with nfP2X7 CAR 1 [4], the “HisTag MFI Ratio (background 0.4)” value is 3.2. Besides, in the test with CD33 [5], the “MFIR HisTag FITC” value stood at 8.46.

B5: CD33 BRIDGE variant B25 (Fab, V domains shown)
VH: B3 VH
VL: B3 VL
notes: as for B1
B5: the “MFI HisTag FITC” value with CD33 [1] was determined as 7.29. Also, the “HisTag MFI Ratio of EGFR+/EGFR-” value with nfP2X7 CAR 1 [2] worked out at 3.4. In addition, the “MFI HisTag FITC in EGFR+ Population” value with nfP2X7 CAR 1 [3] was 1.82. The “HisTag MFI Ratio (background 0.4)” value in the test with nfP2X7 CAR 1 [4] turned out to be 4.6. In addition, the “MFIR HisTag FITC” value with CD33 [5] was determined as 10.9.
